Publication PMC6203859, “Non-catalytic signaling by pseudokinase ILK for regulating cell adhesion” (Nature Communications, 2018)
Residue numbers refer to the chain shown, from its start. Names may count otherwise.

B1: full-length human α-Parvin, subunit of the coexpressed IPP complex (natural protein, UniProt Q9NVD7 1-372, looked up)
chain: MATSPQKSPSVPKSPTPKSPPSRKKDDSFLGKLGGTLARRKKAKEVSELQEEGMNAINLPLSPIPFELDPEDTMLEENEVRTMVDPNSRSDPKLQELMKVLIDWINDVLVGERIIVKDLAEDLYDGQVLQKLFEKLESEKLNVAEVTQSEIAQKQKLQTVLEKINETLKLPPRSIKWNVDSVHAKSLVAILHLLVALSQYFRAPIRLPDHVSIQVVVVQKREGILQSRQIQEEITGNTEALSGRHERDAFDTLFDHAPDKLNVVKKTLITFVNKHLNKLNLEVTELETQFADGVYLVLLMGLLEGYFVPLHSFFLTPDSFEQKVLNVSFAFELMQDGGLEKPKPRPEDIVNCDLKSTLRVLYNLFTKYRNVE
B2: α-Parvin-N (N-terminal region 1–91) as used in F-actin co-sedimentation (domain or fragment)
chain: MATSPQKSPSVPKSPTPKSPPSRKKDDSFLGKLGGTLARRKKAKEVSELQEEGMNAINLPLSPIPFELDPEDTMLEENEVRTMVDPNSRSD
notes: α-Parvin, human, N-terminal region; the text defines α-Parvin-N as 1-91; the methods list a GST-fused 1-89 and a hexahistidine-tagged 1-91 form; also called WT α-Parvin; source: E. coli, purified
B3: α-Parvin-N 5A (L37A/R39A/R40A/K41A/K42A) as used in F-actin co-sedimentation (domain or fragment)
chain: B2 chain with L37A, R39A, R40A, K41A, K42A
notes: α-Parvin, human, N-terminal domain, residues 1-91 (both the GST-fused and the His6-tagged 5A forms are 1-91); source: E. coli, purified

Key:
[1] = target: full-length human ILK (C346S; C422S), subunit of the coexpressed IPP complex (human, UniProt Q13418 1-452, C346S | C422S); experiment: SEC; purified IPP complex (coexpressed in E. coli, co-purified by Ni affinity on His6-PINCH-1) on Superose 6 10/300 GL; conditions: both partners purified
full-length human ILK (C346S; C422S), subunit of the coexpressed IPP complex, sequence (Q13418 whole entry C346S/C422S, one chain of several): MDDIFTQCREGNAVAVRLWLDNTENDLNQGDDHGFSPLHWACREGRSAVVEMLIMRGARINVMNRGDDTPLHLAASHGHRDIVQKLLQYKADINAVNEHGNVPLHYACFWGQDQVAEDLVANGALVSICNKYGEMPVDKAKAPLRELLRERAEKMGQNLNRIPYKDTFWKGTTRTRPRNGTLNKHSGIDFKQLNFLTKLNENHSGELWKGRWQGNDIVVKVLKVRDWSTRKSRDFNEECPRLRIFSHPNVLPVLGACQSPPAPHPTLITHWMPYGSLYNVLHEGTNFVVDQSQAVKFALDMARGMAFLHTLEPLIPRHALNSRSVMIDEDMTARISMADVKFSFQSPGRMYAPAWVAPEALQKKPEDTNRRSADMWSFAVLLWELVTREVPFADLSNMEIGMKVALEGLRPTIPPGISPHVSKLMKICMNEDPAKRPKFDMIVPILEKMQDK

[2] = target: F-actin (rabbit skeletal muscle actin, polymerised) (rabbit, UniProt P68135 1-377); experiment: co-sedimentation; F-actin co-sedimentation: rabbit skeletal muscle actin polymerized with 50 mM KCl, 2 mM MgCl2, 1 mM ATP; test protein added in F-actin buffer (with 5% glycerol or no glycerol), 30 min room temperature; 150,000xg, 4 °C, 1 h; SDS-PAGE, Coomassie, densitometry; KD by curve fitting; conditions: both partners purified

Binder | binding result [1] | Kd [2]
B1 | binds | 
B2 |  | ~21 µM
B3 |  | ~49 µM
